Data as given in EP3574020B1 (The University of British Columbia, dated 2024).
Blank lines part the entries; values can stand above or below the binder they belong to.

Key:
[1] = molecular target: T1, cyclo(CGHHQKG) cyclic peptide, conjugated to BSA (also: conjugated to BSA, site not given here); experiment: single cycle Biacore analysis
T1 construct: BSA is the carrier used for screening; also called cyclopeptide; Cyclo-BSA
T1 peptide: cyclo(CGHHQKG)

[2] = molecular target: T2, commercially-prepared stable A-beta42 Oligomers (SynAging) (human); experiment: ProteOn biosensor; antibody captured with anti-mouse IgG or amine-coupled, AbO dilutions injected
T2 construct: Bought oligomer preparation; also called AbO; SynAging AbO

[3] = molecular target: T1, cyclo(CGHHQKG) cyclic peptide, …; experiment: SPR; immobilized antibody pre-exposed to the cyclic peptide
[4] = molecular target: T1, cyclo(CGHHQKG) cyclic peptide, …; experiment: ProteOn biosensor; antibody amine-coupled to GLH chip, cyclo-BSA 9 nM to 111 pM

T2 sequence (peptide, as listed by the source): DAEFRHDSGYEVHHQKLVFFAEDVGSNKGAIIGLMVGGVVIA

Kd [1]: 0.4 nM
Kd [2]: 26.9 nM
B1: 301-17 mouse monoclonal antibody, hybridoma-purified IgG3 (antibody, V domains shown)
VH: QVQLQQPGAELVKPGASVKMSCKASGYSFTSYWINWVKQRPGQGLEWIGDVHPGRGVSTYNAKFKSKATLTLDTSSSTAYMQLSSLTSEDSAVYYCSRSHGNTYWFFDVWGAGTTVTVSSATTTAPS
VL: DVLMTQTPLSLPVSLGDQASISCRSSQSIVHSNGNTYLEWYLQKPGQSPKLLIYKVSNRFSGVPDRFSGSGSGTDFTLKISRVEAEDLGVYYCFQGSHVPFTFGSGTKLEIKRADA
notes: mouse IgG3 / kappa; also called mu301-17

binding result [3]: binds
B2: Humanized antibody of 301-17 (VH2 Vk5), human IgG4 (S241P hinge variant) / kappa (antibody, V domains shown)
VH: QVQLVQSGAEVKKPGASVKMSCKASGYSFTSYWINWVKQRPGQGLEWIGDVHPGRGVSTYNAKFKSRATLTLDTSISTAYMELSSLRSEDTAVYYCSRSHGNTYWFFDVWGQGTTVTVSS
VL: DVLMTQSPLSLPVTLGQPASISCRSSQSIVHSNGNTYLEWYQQRPGQSPRLLIYKVSNRFSGVPDRFSGSGSGTDFTLKISRVEAEDVGVYYCFQGSHVPFTFGQGTKLEIKR
notes: also called hu301-17

Kd [4]: ~0.017 nM
Kd [2]: 16.2 to 19.5 nM
B3: Recombinant 301-17 IgG2a (murine IgG2a backbone) (antibody)
heavy: QVQLQQPGAELVKPGASVKMSCKASGYSFTSYWINWVKQRPGQGLEWIGDVHPGRGVSTYNAKFKSKATLTLDTSSSTAYMQLSSLTSEDSAVYYCSRSHGNTYWFFDVWGAGTTVTVSSAKTTAPSVYPLAPVCGDTTGSSVTLGCLVKGYFPEPVTLTWNSGSLSSGVHTFPAVLQSDLYTLSSSVTVTSSTWPSQSITCNVAHPASSTKVDKKIEPRGPTIKPCPPCKCPAPNLLGGPSVFIFPPKIKDVLMISLSPIVTCVVVDVSEDDPDVQISWFVNNVEVHTAQTQTHREDYNSTLRVVSALPIQHQDWMSGKEFKCKVNNKDLPAPIERTISKPKGSVRAPQVYVLPPPEEEMTKKQVTLTCMVTDFMPEDIYVEWTNNGKTELNYKNTEPVLDSDGSYFMYSKLRVEKKNWVERNSYSCSVVHEGLHNHHTTKSFSRTPGK
light: DVLMTQTPLSLPVSLGDQASISCRSSQSIVHSNGNTYLEWYLQKPGQSPKLLIYKVSNRFSGVPDRFSGSGSGTDFTLKISRVEAEDLGVYYCFQGSHVPFTFGSGTKLEIKRADAAPTVSIFPPSSEQLTSGGASVVCFLNNFYPKDINVKWKIDGSERQNGVLNSWTDQDSKDSTYSMSSTLTLTKDEYERHNSYTCEATHKTSTSPIVKSFNRNEC

Kd [1]: ~0.02 nM
B4: Chimeric 301-17 antibody (VH0 Vk0), mouse variable regions on human IgG4 / kappa (antibody)
heavy: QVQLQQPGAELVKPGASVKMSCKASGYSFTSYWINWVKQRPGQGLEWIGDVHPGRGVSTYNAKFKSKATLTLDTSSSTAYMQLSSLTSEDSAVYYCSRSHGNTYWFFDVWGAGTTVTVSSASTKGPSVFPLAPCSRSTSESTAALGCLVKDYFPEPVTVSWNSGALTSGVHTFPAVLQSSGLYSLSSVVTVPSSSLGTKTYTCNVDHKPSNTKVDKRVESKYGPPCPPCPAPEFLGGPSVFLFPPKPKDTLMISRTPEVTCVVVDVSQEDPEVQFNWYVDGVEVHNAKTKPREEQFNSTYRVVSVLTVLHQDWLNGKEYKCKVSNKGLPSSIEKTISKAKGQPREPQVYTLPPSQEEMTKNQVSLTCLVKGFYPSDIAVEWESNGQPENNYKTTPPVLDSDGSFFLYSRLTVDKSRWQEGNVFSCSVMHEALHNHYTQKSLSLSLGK
light: DVLMTQTPLSLPVSLGDQASISCRSSQSIVHSNGNTYLEWYLQKPGQSPKLLIYKVSNRFSGVPDRFSGSGSGTDFTLKISRVEAEDLGVYYCFQGSHVPFTFGSGTKLEIKRTVAAPSVFIFPPSDEQLKSGTASVVCLLNNFYPREAKVQWKVDNALQSGNSQESVTEQDSKDSTYSLSSTLTLSKADYEKHKVYACEVTHQGLSSPVTKSFNRGEC
notes: also called V0H0 and V0k0
